Results as given in the DeepSol protein solubility set.

experiment: soluble on expression in E. coli; label from the status in PepcDB or PDB records

Soluble on expression in E. coli, soluble:
MGSDKIHHHHHHMANEATQELFQVLDNTAIILQNELEISYLEAVYETGENLFQKEVLQKEELSSEKQLKLQASYESIELENFSNEEIRKGLQLALLKGMKHGIQVNHQMTPDSIGFIVAYLLEKVIQKKKNVSILDPACGTANLLTTVINQLELKGDVDVHASGVDVDDLLISLALVGADLQRQKMTLLHQDGLANLLVDPVDVVISDLPVGYYPDDENAKTFELCREEGHSFAHFLFIEQGMRYTKPGGYLFFLVPDAMFGTSDFAKVDKFIKKNGHIEGIIKLPETLFKSEQARKSILILEKADVDVKPPKEVLLANLSSLTDPSVTAPILAEIENWFKSKQ
MAPATQRNRETIAAVLQEYLPSQGSILEIASGTGEHACFFAPLFSPRWWITSDPDPLCRESIMAWRDHQALANFQSPLDLDVNDQVWPVEREILREPVTSIVAINLIHISPWESCLGLLTGAERILPEGGILYLYGPYRQKGVPTAPSNEAFDQSLQSRNPAWGLRQLEDVIGEAGKRNLHNQAIIPMPANNLSVIFQKGLEHHHHHH
MVRRLLALSRPLYWLYEKRLLREVKRGPMPRHLGLILDGNRRYARALGLSPTKGHEFGVQKAYEVLEWCLEMGIKTVTVWVFSTDNFKRPPEEVETLMNLFLREAERMAEDHRILEHQVRVRFIGRREGFSPEVVRAIERLERRTEGHRGMFLNIAMGYGGREEIVDAVKRLLLEAEARGLSPKEVAEGLTPEDIARHLYTAGLPDPDFIIRTSGEIRLSGFLLWQSAYSEFYFADVLWPEFRKIDFLRALRSYQARERRFGR
GQGVYTYEDGGVLQGTYVDGELNGPAQEYDTDGRLIFKGQYKDNIRHGVCWIYYPDGGSLVGEVNEDGEMTGEKIAYVYPDERTALYGKFIDGEMIEGKLATLMSTEEGRPHFELMPGNSVYHFDKSTSSCISTNALLPDPYESERVYVAESLISSAGEGLFSKVAVGPNTVMSFYNGVRITHQEVDSRDWALNGNTLSLDEETVIDVPEPYNHVSKYCASLGHKANHSFTPNCIYDMFVHPRFGPIKCIRTLRAVEADEELTVAYGYDHSPPGKSGPEAPEWYQVELKAFQATQQK
MWPPCFWWRTSPACAWGCGWPSRGRGTGFWRRPPRRRPWPLLREAELVVLDWMLPDEPGVRLLDRMRQGPYESLPVLMLTARAGVRDRVEGLSRGADDYLVKPFAVEELLARLEALLRRAGKRKVLRRGPLLLDLERMEARLEGNPLPLTRREFALLAYLAERPGRVCTREELLEAVWGPDYLGTPRTVDQHVLQLREKLGEDPKAPRFLETVRGVGYRFREEA
MSLRARYKQLVDTFAADIRTGILAPGTRLPTHRELAAREGLALVTASRVYAELEAMGLVSGETGRGTYVRETALPPGQGVDQPATAPGTLDLNFNYPALPGQAELLRSALRQLAATGDLEALLRYQPHAGRSHERATVARYLAGHGLVVEGEQVLLVSGAQHGLSTTLMALLRPGDVVAVDALTYPGFKVVAEAHGLELLAIPLSEQGPDLEAFERLCQRRRVRAVYAMPTLHNPMGWVLDLAWRQRLVAIGRAHGLLIIEDAAYAFLAQDPPAPLAALAPEITVYISGFSKNVATGLRVGYVVAPPAWVALIERAIRTSTWNTPGVMTAMACAWIEDGTVARLEHQKREDAQARQALAREALAGLAYVSHPNSYFLWLPLPEEVRADQVAMALLREKVSVSTAEPFVGAGPVPHAIRLALGSVAMADLGVALARVRQVIGRYAFEGHHHHHH

Soluble on expression in E. coli, not soluble:
MGSDKIHHHHHHLTVPKKLLLSDLLKHNVRCENGIDHGPVITPWMHPPVHRILGFISRPSNLRLEREVWRLDQLKGINQQEVYVKGVCSVSDEQTLDRFPTLMNANVFNKSGQKIGLIADFLFEPKKGNIQYYLVSRSNPLIPGTSRWLLSIDQIIDKQPGSISCDIETFEDLPIQKASLKEEFLSKSRKWKAQFQDLTYNASDKLEGWIDDQISESDNDSYEMLNDDPSYDDWIDNLDIDSSEEFNRMNKSKKNTNSTNERDLDPWI
MAHHHHHHMMRLLRNNVKNMFLKNCFLVRNTNVKCWRTDRFHNYNMWNTVENNGIRGFSSSSFEEIKKMNMFTAINSAMHNVFESNPNSVLLGEDVAFGGVFRCSLDLLKKYGNMRVFNTPLCEQGIIGFAIGLAENGFTTIAEIQFGDYIFPAFDQIVNDVAKYRYRSGSSFDVGKLTIRSTWGAVGHGGLYHSQSPEAFFAHAAGIKIIVPSDAYKAKGLLLSAINDPNPCLFFEPKILYRSSVCDVPTGPYQLELGKADVVRQGSDVTIVTWGSLVHKMKNAAEILSKKHNIECEVIDLQSIIPWDIETVQKSVEKTGRLLITHEAQLTNGFGAEIAAKIQERCFYNLHTPIKRVCGYDTPFPHVYEPFYMPDAHKVIYEVKKMMK
METVTLSEARVYVGTYNKYNSGSLFGKWLDLSDYSDKDEFMEACRELHKDDQDPEFMFQDYENIPEALISESWLSDKFFELRDAIEKLSETQQEAFFVWCDHHNNDISEEDADDLISSFEDEYQGEYKDEEDYAYEIVEECYDLPEFAKTYFDYSAFARDLFMTDYWMDNGFVFRCA
MASCQKSIFLGRLTTFTDSNISPTSLIFSSKMSSRTLRSSSSSNAISTKTQPKTEEAPLIPVTKGPVIRMTSNMADKAQNDHSMWPSTSKFESIWGNVLGERVNKSTIAAIREGMKIENKVTCGCRPGQDCSTNPACRCFQTASRLREHFGSDILTRGKPVKTVDTMYWDRPMFACSGSCGCKGQCNLNALQDICEDPAKKFKITRTDGKGFCVYSARVIKKGSPVLEFSGEITDYLAIKSNADIEQYSIMLYNNETKLCDFFSKEENLSSKYKKILWSAYRSKAWINPLNRGNCARFFSHGCKANMELGRVFQGGFSPADMKIVLFAKEIIKPGTELTFNYGPSYKEIFLGNKCLCEACKKEAVKKLENAVKRILKNSRDPSEPPSKKKSVKKLDGKENVR
MSRQPLSREDTAILVPALNEALRIREVVTDALTYCSHVIVIDDGSDDGTAECIAGMPVTLIRHPQRMGKGAALRSGFAQAQRLGMRAVMTMDGDGQHKAADFPRLLAAANRHPGCVIIGARMRKRATQPTIRRIGNDFGDWGIAWGCGFRLIDSQSGQRLYPASVFTLPNVPGEGFVFEAQLLISAARQAGARVVAVPIETRYAGTSPGTFRKSHFRLVRDLWNITSHVVKQVWAYGHVWREYRRVRANPVIVDDPDGEFATVPAVTKSNHSSLEHHHHHH
MKACGIIVEYNPFHNGHRYHAQQARQQSGAEVVIAIMSGNFLQRGEPALLDKWARAEEALQNGVDLVIELPTAWSVQSADYFAKGGIKLLQALQCESLCFGTDSTSAIDYAAFGQFVQENQSLIDQTFHALTDKQLSYPQKMTAVFRQVYPESRFDFSSPNHILGMSYAKENATYPTPMTLYPIARKQAGFHDATISGKVASATAIRQSVFQQEITQVLPTVPSITAQHLQTQTMISWENYWPFLKYKIVQSSLEELQAIYQMTEGLEYRLKDQIQAAGSFHELMERMKTKRYTWTRLQRLATYILLNMTKEEVETVWQNSYLHVLGFTPKGQAYLKETKAQIQLPVISKVSKENRAMLSLDIRANQLYQMGDSSLKEQNFGRFPLRFSPDT
MAHHHHHHMKLEFAHEAIVSRRRLSKFGYSLQTEKWTLHVNKKKRERKRKDSKKREEGEVIITKNANEREIKTVEESKHHTTCRLWFANVAACMYFLALATEELNTILQTEVFSKQRLIYWQMYHMPCSHISCMSARIPPLPPFRLYVTLKPKMRGSIFANISVGRMVGYEAAWSSTYSKRKR
MGSDKIHHHHHHEDFLQKDPPSSPSQSVFWQKKSDFESALAGTYSVMYSGVFSQIMPCLDGLTDNAIVQHSEGTYGWAKTIAQGDLTPNQGGFVTDIYGNCYKGIARVHILMEQLDQYTGSDISADEKKFMLAQCKALRGYFYSWLYQCYKEVPVVTQSLDLNTMYQPKATRAEVLNRVMTDYDEAISELPDKLYSDSQTSGRFTVSAVKALKARILLFDAYDSNGKAISSKMEEVLTLLQSIKGYSLAARVRDNFISEKQLASPEIMFSVRFLRPNLTHSMDLYYGAWAVLDPTRNMVDAFECTDGKPWGESPLTVRPDESILYGNDDALKKAERAKMFMNRDRRLYESVNHSMMANFVDDGFKDEEVQVNESNNKGPTGFSALKYVQPTDVTPGYSTVSDADIVVLRYAHVLLMIAEAENEAHGATTTALNAINEVRTRSGQPAIEAGISQDDLRERIRNEWRIETCFEGLRYFQLKRWKLMDKRVNGVEDPAYPGYIKVYKPAFEFFPIPQSEIDKAGGVLKQDPAYE
MGHERDWSLVQVALTDITARKKAEAYLEYLGKHDVLTKLHNRAFYSDELNRLERSALRPVSAIVIDLNGLKEANDKLGHDAGDALLRRVGEVLNGVVTAPNHAARIGGDEFAILLPGADKQVAAAMVDTVYELLKINNQFYSSAPLSLSLGVATTEAGETMESLVRRADMNMYEQKNAYYAALRNRSADNNDTTKGLEHHHHHH
MLYDKSLEKDNCGFGLIAHIEGEPSHKVVRTAIHALARMQHRGAILADGKTGDGCGLLLQKPDRFFRIVAEERGWRLAKNYAVGMIFLNKDPELAAASRHIVEEELQQETLSIVGWRDVPTNEGVLGEIALSSLPRIEQIFVNAPAGWRPRDMERRLFIARRRIEKRLQDDKDFYVCSLSNLVNIYKGLCMPADLPRFYLDLADLRLESAICLFHQRFSTNTVPRWPLAQPFRYLAHNGEINTITGNRQWARARTYKFQTPLIPDLQSAAPFVNETGSDSSSLDNMLELLLAGGMDIIRAMRLLVPPAWQNNPDMDQDLRAFFDFNSMHMEPWDGPAGIVMSDGRFAACNLDRNGLRPARYVITKDKLITCASEVGIWDYQPDEVVEKGRVGPGELMVIDTRGGRILHSAETDDDLKSRHPYKEWMEKNVRRLVPFEELPDEEVGSRELDDDLLASYQKQFNYSAEELDSVIRVLGENGQEAVGSMGDDTPFAVLSSQPRIIYDYFRQQFAQVTNPPIDPLREAHVMSLATSIGREMNVFCEAEGQAHRLSFKSPILLYSDFKQLTTMKEEHYRADRLDITFDVTETTLNATVKALCDKAEQMVRNGTVLLVLSDRNIGKNRLPVPAPMAVGAVQTRLVEQSLRCDANIIVETGSARDPHHFAVLLGFGATAIYPYLAYETLGRLIDTQAIAKNYRTVMQNYRNGINKGLYKIMSKMGISTIASYRCSKLFEAVGLHDDVVNLCFQGVVSRIGGASFDDFQQDLLNLSKRAWLARKPISPGGLLKYVHGGEYHAYNPDVVRTLQQAVQSGEYSDYQEYAKLVNERPASTLRDLLAIHPDGEAVTIDEVEPASELFKRFDTAAMSIGALSPEAHEALAEAMNSLGGNSNSGEGGEDPARYGTNKVSRIKQVASGRFGVTPAYLVNADVIQIKVAQGAKPGEGGQLPGDKVTPYIAKLRYSVPGVTLISPPPHHDIYSIEDLAQLIFDLKQVNPKAMISVKLVSEPGVGTIATGVAKAYADLITIAGYDGGTGASPLSSVKYAGCPWELGLVETQQALVANGLRHKIRLQVDGGLKTGVDIIKAAILGAESFGFGTGPMVALGCKYLRICHLNNCATGVATQDDKLRKNHYHGLPFKVTNYFEFIAREVRELMASLGVTRLVDLIGRTDLLKELEGFTAKQQKLALSRLLETAEPHPGKALYCTENNPPFDNGVLNAQLLQQAKPFVDARQSKTFWFDIRNTDRSVGASLSGYIAQTHGDQGLASDPIKAHFSGTAGQSFGVWNAGGVELYLTGDANDYVGKGMAGGLIAIRPPVGSAFLSHKASIIGNTCLYGATGGRLYAAGRAGERFGVRNSGAITVVEGIGDNGCEYMTGGIVCVLGKTGVNFGAGMTGGFAYVLDEDGEFRKRVNPELVEVLDVDSLAIHEEHLRGLITEHVQHTGSQRGEEILSRWSSFSTQFALVKPKSSDVKALLGHRSRSAAELRVQAQ
